Source: article PMC4156074

Columns and labels:
[1] = molecular target: Full-length human plasma kallikrein, activated form (human) (UniProt P03952)
[2] = molecular target: Full-length human plasma kallikrein, activated form (human) (UniProt P03952); assay: enzyme inhibition (steady state, tight-binding fit); DX-2930 IgG (up to 10 nM, 1.5-fold dilutions) incubated 1 h at 30 °C with 1 nM pKal, free or preincubated with 600 nM 2-chain HMWK, in 20 mM Tris-HCl pH 7.5, 150 mM NaCl, 1 mM EDTA, 0.1% PEG-8000, 0.1% Triton X-100; substrate H-Pro-Phe-Arg-AMC at 10, 50 or 100 uM; Ki from Ki app by Equation 2, averaged
[3] = molecular target: pKal from cynomolgus monkey plasma (cynomolgus monkey); assay: enzyme inhibition (steady state, tight-binding fit); DX-2930 on purified pKal of mouse, rat, rabbit and cynomolgus monkey; apparent; data not shown

Sequence of Full-length human plasma kallikrein, activated form (human) (P03952 20-390, chain 1 of 2): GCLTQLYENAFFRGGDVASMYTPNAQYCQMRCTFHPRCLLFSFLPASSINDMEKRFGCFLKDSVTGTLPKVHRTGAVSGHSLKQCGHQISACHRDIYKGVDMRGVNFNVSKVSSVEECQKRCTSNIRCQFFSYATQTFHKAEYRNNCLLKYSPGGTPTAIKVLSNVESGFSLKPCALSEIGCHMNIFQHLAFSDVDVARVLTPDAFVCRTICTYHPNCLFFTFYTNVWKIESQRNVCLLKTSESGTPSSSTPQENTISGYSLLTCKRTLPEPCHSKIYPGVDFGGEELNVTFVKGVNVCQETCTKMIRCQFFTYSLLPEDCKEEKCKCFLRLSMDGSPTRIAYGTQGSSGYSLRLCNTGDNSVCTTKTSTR
Sequence of Full-length human plasma kallikrein, activated form (human) (P03952 391-638, chain 2 of 2): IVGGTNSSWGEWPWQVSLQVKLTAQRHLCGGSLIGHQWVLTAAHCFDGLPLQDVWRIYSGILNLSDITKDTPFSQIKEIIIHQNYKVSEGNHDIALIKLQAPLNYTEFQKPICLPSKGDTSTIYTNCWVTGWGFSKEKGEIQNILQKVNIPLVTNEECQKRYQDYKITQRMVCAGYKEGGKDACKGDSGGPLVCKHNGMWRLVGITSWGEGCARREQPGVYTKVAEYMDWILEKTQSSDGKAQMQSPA

B1: DX-2930, fully human IgG1 monoclonal antibody (antibody, V domains shown)
VH: EVQLLESGGGLVQPGGSLRLSCAASGFTFSHYIMMWVRQAPGKGLEWVSGIYSSGGITVYADSVKGRFTISRDNSKNTLYLQMNSLRAEDTAVYYCAYRRIGVPRRDEFDIWGQGTMVTVSS
VL: DIQMTQSPSTLSASVGDRVTITCRASQSISSWLAWYQQKPGKAPKLLIYKASTLESGVPSRFSGSGSGTEFTLTISSLQPDDFATYYCQQYNTYWTFGQGTKVEIK
Question: For B1, which release of bradykinin from 1-chain HMWK (20 nM) by pKal (0.15 nM) after 1 h with DX-2930, bradykinin ELISA; blocks the proteolysis of HMWK by pKal [1] is on record?
Answer: 1.3 nM

Question: What about the Ki [2] of the same binder?
Answer: 0.12 nM

Question: And the Ki [3]?
Answer: 0.07 nM
